Results from patent US20230167164A1 (IMMUNOWAKE, published 2023).
Residue numbers refer to the chain shown, from its start. Names may count otherwise. One block for each binder: values may come before it.

Legend:
[1] = biological target: human PD-1 overexpressed on HEK-Blue reporter cells (human, UniProt Q15116 25-288); assay: cell-based or functional assay
[2] = biological target: T1, human IL-12 receptor complex (human, UniProt P42701 24-662; Q99665 24-862); assay: cell-based or functional assay
human PD-1 [3] = biological target: T2, human PD-1 (human, UniProt Q15116 25-167, limits assumed); assay: Kd column of Table 18; same value as the antibody in Table 17
T2 construct: nivolumab is called an anti-human PD-1 antibody; also called hPD-1

human PD-1 [4] = biological target: T2, human PD-1; assay: Kd to PD-1 as printed for the construct in Table 19; method not told there; same value as for the parental anti-PD-1 antibody
human CD4 on cells = biological target: T3, human CD4 on cells (human, UniProt P01730 26-458); assay: FACS on CD4+ T cells
T3 construct: whole, on cells; also called CD4+ T cells; HEK-CD4-IFN-γ cells

[5] = biological target: T1, human IL-12 receptor complex; assay: cell-based or functional assay; remark: listed apart in the source
human PD-1 [6] = biological target: T2, human PD-1; assay: affinity measured in PD-L2-Fc format; method not named
mouse PD-1 = biological target: T4, mouse PD-1 (mouse, UniProt Q02242 25-167, limits assumed); assay: as above
T4 construct: also called mPD-1
T4 sequence (looked up): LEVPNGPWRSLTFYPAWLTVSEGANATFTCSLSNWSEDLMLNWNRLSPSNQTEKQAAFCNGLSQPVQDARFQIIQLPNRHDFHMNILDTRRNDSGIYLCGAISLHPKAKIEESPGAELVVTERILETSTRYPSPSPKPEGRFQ

human PD-1 overexpressed on HEK-Blue reporter cells, sequence (Q15116 25-288): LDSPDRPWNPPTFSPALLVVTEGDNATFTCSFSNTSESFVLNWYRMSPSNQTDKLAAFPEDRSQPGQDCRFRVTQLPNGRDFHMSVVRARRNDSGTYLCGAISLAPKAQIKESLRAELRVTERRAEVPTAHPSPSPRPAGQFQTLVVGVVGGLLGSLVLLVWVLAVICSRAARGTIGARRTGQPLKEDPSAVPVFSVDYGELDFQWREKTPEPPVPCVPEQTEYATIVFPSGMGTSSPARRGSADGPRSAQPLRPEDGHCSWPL
T2 sequence (Q15116 25-167 limits assumed): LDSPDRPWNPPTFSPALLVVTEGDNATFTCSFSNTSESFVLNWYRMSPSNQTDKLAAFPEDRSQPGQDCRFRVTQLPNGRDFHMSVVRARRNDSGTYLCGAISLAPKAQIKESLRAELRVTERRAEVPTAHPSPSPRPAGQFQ
T1 sequence (Q99665 24-862, chain 2 of 2, other chains not shown): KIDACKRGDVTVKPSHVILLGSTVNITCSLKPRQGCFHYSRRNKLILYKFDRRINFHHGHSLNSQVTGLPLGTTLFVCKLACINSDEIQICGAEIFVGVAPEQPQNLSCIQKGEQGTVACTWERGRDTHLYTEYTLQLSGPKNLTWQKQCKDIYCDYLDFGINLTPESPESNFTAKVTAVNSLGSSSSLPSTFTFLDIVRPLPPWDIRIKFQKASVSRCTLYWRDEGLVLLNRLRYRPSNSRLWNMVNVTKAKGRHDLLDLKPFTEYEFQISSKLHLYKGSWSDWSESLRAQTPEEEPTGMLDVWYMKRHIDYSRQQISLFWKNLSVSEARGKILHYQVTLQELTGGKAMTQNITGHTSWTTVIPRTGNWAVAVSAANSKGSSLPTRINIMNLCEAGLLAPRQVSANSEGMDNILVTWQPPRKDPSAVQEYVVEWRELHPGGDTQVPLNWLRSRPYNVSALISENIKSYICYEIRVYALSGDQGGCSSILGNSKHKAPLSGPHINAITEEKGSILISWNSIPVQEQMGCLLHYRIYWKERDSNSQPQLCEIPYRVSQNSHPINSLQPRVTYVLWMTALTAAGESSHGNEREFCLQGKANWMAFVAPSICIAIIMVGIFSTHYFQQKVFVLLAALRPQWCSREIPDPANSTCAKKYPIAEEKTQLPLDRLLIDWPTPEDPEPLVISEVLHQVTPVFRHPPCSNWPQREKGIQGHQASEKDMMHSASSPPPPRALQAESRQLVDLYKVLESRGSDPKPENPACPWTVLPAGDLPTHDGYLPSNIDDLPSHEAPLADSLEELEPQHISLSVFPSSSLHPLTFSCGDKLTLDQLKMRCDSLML

B3: IL-12(E59A/F60A)/anti-PD-1(D100R) (other)
heavy 1: QVQLVESGGGVVQPGRSLRLDCKASGITFSNSGMHWVRQAPGKGLEWVAVIWYDGSKRYYADSVKGRFTISRDNSKNTLFLQMNSLRAEDTAVYYCATNRDYWGQGTLVTVSSASTKGPSVFPLAPSSKSTSGGTAALGCLVKDYFPEPVTVSWNSGALTSGVHTFPAVLQSSGLYSLSSVVTVPSSSLGTQTYICNVNHKPSNTKVDKKVEPKSCDKPGSGIWELKKDVYVVELDWYPDAPGEMVVLTCDTPEEDGITWTLDQSSEVLGSGKTLTIQVKAAGDAGQYTCHKGGEVLSHSLLLLHKKEDGIWSTDILKDQKEPKNKTFLRCEAKNYSGRFTCWWLTTISTDLTFSVKSSRGSSDPQGVTCGAATLSAERVRGDNKEYEYSVECQEDSACPAAEESLPIEVMVDAVHKLKYENYTSSFFIRDIIKPDPPKNLQLKPLKNSRQVEVSWEYPDTWSTPHSYFSLTFCVQVQGKSKREKKDRVFTDKTSATVICRKNASISVRAQDRYYSSSWSEWASVPCSGGGGSGGGGSGGGGSGGGGSGRNLPVATPDPGMFPCLHHSQNLLRAVSNMLQKARQTLEFYPCTSEEIDHEDITKDKTSTVEACLPLELTKNESCLNSRETSFITNGSCLASRKTSFMMALCLSSIYEDLKMYQVEFKTMNAKLLMDPKRQIFLDQNMLAVIDELMQALNFNSETVPQKSSLEEPDFYKTKIKLCILLHAFRIRAVTIDRVMSYLNASDKTHTCPPCPAPEDEGGPSVFLFPPKPKDTLMISRTPEVTCVVVDVSHEDPEVKFNWYVDGVEVHNAKTKPREEQYNSTYRVVSVLTVLHQDWLNGKEYKCKVSNKALPAPIEKTISKAKGQPREPQVYVYPPSREEMTKNQVSLTCLVKGFYPSDIAVEWESNGQPENNYKTTPPVLDEDGSFALVSKLTVDKSRWQQGNVFSCSVMHEALHNHYTQKSLSLSPGK
heavy 2: QVQLVESGGGVVQPGRSLRLDCKASGITFSNSGMHWVRQAPGKGLEWVAVIWYDGSKRYYADSVKGRFTISRDNSKNTLFLQMNSLRAEDTAVYYCATNRDYWGQGTLVTVSSASTKGPSVFPLAPSSKSTSGGTAALGCLVKDYFPEPVTVSWNSGALTSGVHTFPAVLQSSGLYSLSSVVTVPSSSLGTQTYICNVNHKPSNTKVDKKVEPKSCDKTHTCPPCPAPEKKGGPSVFLFPPKPKDTLMISRTPEVTCVVVDVSHEDPEVKFNWYVDGVEVHNAKTKPREEQYNSTYRVVSVLTVLHQDWLNGKEYKCKVSNKALPAPIEKTISKAKGQPREPQVYVLPPSREEMTKNQVSLLCLVKGFYPSDIAVEWESNGQPENRYMTWPPVLDSDGSFFLYSKLTVDKSRWQQGNVFSCSVMHEALHNHYTQKSLSLSPGK
light: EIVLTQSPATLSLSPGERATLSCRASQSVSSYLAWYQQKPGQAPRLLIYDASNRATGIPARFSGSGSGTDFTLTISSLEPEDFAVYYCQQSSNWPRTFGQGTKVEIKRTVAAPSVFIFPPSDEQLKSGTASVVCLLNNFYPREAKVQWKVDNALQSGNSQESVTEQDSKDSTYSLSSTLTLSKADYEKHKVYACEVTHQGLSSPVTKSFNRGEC
- IL-12 signal transduction, % of rIL-12, HEK-IL-12-PD-1 (high) [1]: 10%
- IL-12 signal transduction, % of rIL-12, HEK-IL-12-PD-1 (low) [1]: 3%
- IL-12 signal transduction, % of rIL-12, HEK-IL-12 cells [2]: < 0.2%
- Kd (human PD-1 [3]): 0.91 µM
- Kd (human PD-1 [4]): 0.91 µM

B4: Fab-IL-12(F60A)-Fc-CD8 Ab (other)
heavy 1: EVQLQQSGPELVKPGASVKMSCKASGYTFTDYYMKWVKQSHGKSLEWIGHINPNNDDTFYTQKFKGRATLTVDKSSSTAYMQLNSLTSEDSAVYYCVRDDYDGGWFAYWGQGTLVTVSSASTKGPSVFPLAPSSKSTSGGTAALGCLVKDYFPEPVTVSWNSGALTSGVHTFPAVLQSSGLYSLSSVVTVPSSSLGTQTYICNVNHKPSNTKVDKKVEPKSCDKPGSGIWELKKDVYVVELDWYPDAPGEMVVLTCDTPEEDGITWTLDQSSEVLGSGKTLTIQVKEAGDAGQYTCHKGGEVLSHSLLLLHKKEDGIWSTDILKDQKEPKNKTFLRCEAKNYSGRFTCWWLTTISTDLTFSVKSSRGSSDPQGVTCGAATLSAERVRGDNKEYEYSVECQEDSACPAAEESLPIEVMVDAVHKLKYENYTSSFFIRDIIKPDPPKNLQLKPLKNSRQVEVSWEYPDTWSTPHSYFSLTFCVQVQGKSKREKKDRVFTDKTSATVICRKNASISVRAQDRYYSSSWSEWASVPCSGGGGSGGGGSGGGGSGGGGSGRNLPVATPDPGMFPCLHHSQNLLRAVSNMLQKARQTLEFYPCTSEEIDHEDITKDKTSTVEACLPLELTKNESCLNSRETSFITNGSCLASRKTSFMMALCLSSIYEDLKMYQVEFKTMNAKLLMDPKRQIFLDQNMLAVIDELMQALNFNSETVPQKSSLEEPDFYKTKIKLCILLHAFRIRAVTIDRVMSYLNASDKTHTCPPCPAPEDEGGPSVFLFPPKPKDTLMISRTPEVTCVVVDVSHEDPEVKFNWYVDGVEVHNAKTKPREEQYNSTYRVVSVLTVLHQDWLNGKEYKCKVSNKALPAPIEKTISKAKGQPREPQVYVYPPSREEMTKNQVSLTCLVKGFYPSDIAVEWESNGQPENNYKTTPPVLDEDGSFALVSKLTVDKSRWQQGNVFSCSVMHEALHNHYTQKSLSLSPGK
heavy 2: EVQLQQSGPELVKPGASVKMSCKASGYTFTDYYMKWVKQSHGKSLEWIGHINPNNDDTFYTQKFKGRATLTVDKSSSTAYMQLNSLTSEDSAVYYCVRDDYDGGWFAYWGQGTLVTVSSASTKGPSVFPLAPSSKSTSGGTAALGCLVKDYFPEPVTVSWNSGALTSGVHTFPAVLQSSGLYSLSSVVTVPSSSLGTQTYICNVNHKPSNTKVDKKVEPKSCDKTHTCPPCPAPEKKGGPSVFLFPPKPKDTLMISRTPEVTCVVVDVSHEDPEVKFNWYVDGVEVHNAKTKPREEQYNSTYRVVSVLTVLHQDWLNGKEYKCKVSNKALPAPIEKTISKAKGQPREPQVYVLPPSREEMTKNQVSLLCLVKGFYPSDIAVEWESNGQPENRYMTWPPVLDSDGSFFLYSKLTVDKSRWQQGNVFSCSVMHEALHNHYTQKSLSLSPGK
light: DIQMTQTTSSLSASLGDRVTISCRASQDINNYLNWYQQKSDGTIKLLIYYTSRSYSGVPSRFSGSGSGTDYSLTISNRRQEDIATYFCQQGKTLPWTFGGGTKLEIKRTVAAPSVFIFPPSDEQLKSGTASVVCLLNNFYPREAKVQWKVDNALQSGNSQESVTEQDSKDSTYSLSSTLTLSKADYEKHKVYACEVTHQGLSSPVTKSFNRGEC
- binding result (human CD4 on cells): no binding
- IFN-γ release, % of rIL-12, activated CD4+ T cells [5]: 1.2%

The next lines start with the values.

- IL-12 signal transduction, % of rIL-12, HEK-IL-12-PD-1 (high) [1]: 33%
- IL-12 signal transduction, % of rIL-12, HEK-IL-12-PD-1 (low) [1]: 17%
- IL-12 signal transduction, % of rIL-12, HEK-IL-12 cells [2]: < 0.2%
- Kd (human PD-1 [3]): 0.13 µM
- Kd (human PD-1 [4]): 0.13 µM
B1: IL-12(E59A/F60A)/anti-PD-1(D100G) (other)
heavy 1: B3 heavy 1 with R100G
heavy 2: B3 heavy 2 with R100G
light: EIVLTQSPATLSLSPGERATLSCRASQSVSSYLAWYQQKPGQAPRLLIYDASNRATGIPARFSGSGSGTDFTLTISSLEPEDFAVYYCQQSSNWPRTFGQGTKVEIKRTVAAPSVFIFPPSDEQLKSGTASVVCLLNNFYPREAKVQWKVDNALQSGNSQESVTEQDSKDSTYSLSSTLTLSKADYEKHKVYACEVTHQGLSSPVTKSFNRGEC

- IL-12 signal transduction, % of rIL-12, HEK-IL-12-PD-1 (high) [1]: 38%
- IL-12 signal transduction, % of rIL-12, HEK-IL-12-PD-1 (low) [1]: 33%
- IL-12 signal transduction, % of rIL-12, HEK-IL-12 cells [2]: < 0.2%
- Kd (human PD-1 [3]): 0.025 µM
- Kd (human PD-1 [4]): 0.025 µM
B2: IL-12(E59A/F60A)/anti-PD-1(D100N) (other)
heavy 1: B3 heavy 1 with R100N
heavy 2: B3 heavy 2 with R100N
light: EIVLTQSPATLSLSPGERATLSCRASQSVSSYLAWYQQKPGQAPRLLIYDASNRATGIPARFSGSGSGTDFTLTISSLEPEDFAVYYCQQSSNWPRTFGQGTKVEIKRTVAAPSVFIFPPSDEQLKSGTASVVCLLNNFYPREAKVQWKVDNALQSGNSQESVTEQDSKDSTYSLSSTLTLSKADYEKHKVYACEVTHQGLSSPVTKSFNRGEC

- Kd (human PD-1 [6]): 1.2 µM
- Kd (mouse PD-1): 0.98 µM
B5: PD-L2(wt)-Fc (Fc fusion)
chain 1: LFTVTVPKELYIIEHGSNVTLECNFDTGSHVNLGAITASLQKVENDTSPHRERATLLEEQLPLGKASFHIPQVQVRDEGQYQCIIIYGVAWDYKYLTLKVKASYRKINTHILKVPETDEVELTCQATGYPLAEVSWPNVSVPANTSHSRTPEGLYQVTSVLRLKPPPGRNFSCVFWNTHVRELTLASIDLQSQMEPRTHPTDKTHTCPPCPAPEDEGGPSVFLFPPKPKDTLMISRTPEVTCVVVDVSHEDPEVKFNWYVDGVEVHNAKTKPREEQYNSTYRVVSVLTVLHQDWLNGKEYKCKVSNKALPAPIEKTISKAKGQPREPQVYVYPPSREEMTKNQVSLTCLVKGFYPSDIAVEWESNGQPENNYKTTPPVLDEDGSFALVSKLTVDKSRWQQGNVFSCSVMHEALHNHYTQKSLSLSPGK
chain 2: B5 chain 1 with D215K, E216K, Y332L, T347L, N371R, K373M, T375W, E381S, A386F, V388Y
notes: also called None
